Test results taken from article doi:10.1101/2022.03.06.483192.
Where “and” joins values, the source holds several entries; their conditions need not be identical. Identical values can stand only once.

Legend:
[1] = target: SYCP1αNcore (UniProt Q15431); assay: SEC-MALS
[2] = target: SYCP1αN (UniProt Q15431); assay: SEC-MALS
[3] = target: SYCP1αNcore (UniProt Q15431); assay: ITC
[4] = target: MBP-SYCP1αNcore (UniProt Q15431); assay: SEC-MALS
MBP-SYCP1αNcore, sequence (Q15431 206-362): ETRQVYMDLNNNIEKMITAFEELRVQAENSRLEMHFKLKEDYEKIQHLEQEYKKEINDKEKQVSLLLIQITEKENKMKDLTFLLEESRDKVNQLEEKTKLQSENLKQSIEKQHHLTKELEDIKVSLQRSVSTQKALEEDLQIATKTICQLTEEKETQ

SYCP1αNcore, sequence (Q15431 206-362): as above
SYCP1αN, sequence (Q15431 101-362): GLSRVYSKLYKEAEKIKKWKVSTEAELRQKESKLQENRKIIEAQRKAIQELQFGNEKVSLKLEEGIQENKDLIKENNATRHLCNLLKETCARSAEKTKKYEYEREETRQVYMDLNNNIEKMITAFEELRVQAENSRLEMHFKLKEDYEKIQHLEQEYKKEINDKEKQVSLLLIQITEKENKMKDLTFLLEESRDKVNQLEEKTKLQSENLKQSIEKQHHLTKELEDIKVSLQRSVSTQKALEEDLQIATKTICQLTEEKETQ

stoichiometry N (SYCP1 chains per SYCE3 chain) [1]	stoichiometry N (SYCP1 chains per SYCE3 chain) [2]	KD, single replicate [3]	Kd [3] [nM]	stoichiometry N (SYCP1 chains per SYCE3 chain) [4]	Substance
2	–	–	–	–	SYCE3 P53Q (from UniProt A1L190 11-81) (natural protein)
2	2	16 nM and 10 nM and 22 nM	16	–	SYCE3 W41E Y44E (from UniProt A1L190 11-81) (natural protein)
2	–	–	–	2	MBP-SYCE3 (from UniProt A1L190 11-81) (natural protein)
